This is an account of results in publication PMC7406587, “Improving the production of AHL lactonase AiiO-AIO6 from Ochrobactrum sp. M231 in intracellular protease-deficient Bacillus subtilis” (AMB Express, 2020).

One may read the Km as the concentration of substrate that gives half-maximal velocity.

Substrate in this series: CCCCCC(=O)CC(=O)N[C@H]1CCOC1=O
Description: purified protein. Type of series: biochemical, Ochrobactrum sp. M231. The following applies: PBS pH 7.0, 30 °C, 30 min, substrate range printed as 0.249 to 0.870 nM in methods, not consistent with Km in mmol/L, hydrolysis assay used 0.248 mM.

B1: AiiO-AIO6 (Ochrobactrum sp. M231) (protein)
chain: MKSHEIETSHGRIAIRESRGNGTPLLMIHGNSSAGAIFAPQLEGEIGRNWRVIAPDLPGHGQSGNALDPDRSYSMEGYADVMTEVLAKLGISDAVVFGWSLGGHIGIEMISRFPGMRGLMITGTPPVAREEVGQGFRSGPDMALAGQEAFSDRDVESYARSTCGEPFEEQLLEIVARTDGRARRIMFEKFAAGTGGNQRDIVAEARLPIAVVNGRDEPFVELDFVSKVRFGNLWEGRTHVIDGAGHAPFRETPAIFDDYLQRFMRDCTA
notes: purified recombinant; expressed from pWB-AIO6BS in Bacillus subtilis 1A751 or protease-deletion derivatives (non-classical secretion, no signal peptide); His tag implied by anti-His Western blot; catalytic triad Ser100, Glu214, His246
As for B1, the Michaelis-Menten constant (Km) is listed as 0.4151 mmol/L and the kcat was 9.34 S^-1.
